# Literature values in article PMC4723247, “Novel α-L-Fucosidases from a Soil Metagenome for Production of Fucosylated Human Milk Oligosaccharides” (PLoS ONE, 2016).
# Like-named read-outs stand apart in the source and are kept apart here.
# B1: AtFUC1;At2g28100: α-1,3/4-L-fucosidase 1 from Arabidopsis thaliana (Uniprot Q8GW72) (protein, UniProt Q8GW72 24-506, looked up)
# Alpha-L-fucosidase 1: SSLLKPHPCPILPLPSSQQLQWQLGSMAMFLHFGPNTFTDSEWGTGKANPSIFNPTHLNASQWVQIAKDSGFSRVILTAKHHDGFCLWPSEYTDYSVKSSQWRNGAGDVVAELASAAKEAGIGLGLYLSPWDRHEQCYGKTLEYNEFYLSQMTELLTKYGEIKEVWLDGAKGDGEKDMEYFFDTWFSLIHQLQPKAVIFSDAGPDVRWIGDEAGLAGSTCWSLFNRTNAKIGDTEPSYSQEGDGYGQDWVPAECDVSIRPGWFWHASESPKPAVQLLDIYYNSVGRNCLFLLNVPPNSSGLISEQDIKVLEEFSEMKNSIFSNNLARKAFVNSSSIRGDQSSQFGPKNVLEEGLDKYWAPEENQNEWVLYLEFKDLVSFNVLEIREPIHMGQRIASFHLETRKTGSGEWERVVSGTTVGNKRLLRFLNVVESRSLKLVVDKARTDPLISYLGLYMDKFSGSSRNTTKITITRTLKEEQQLHDL
# B2: FUCA1: α-L-fucosidase from Canis lupus familiaris (Uniprot P48300) (protein, UniProt P48300 27-465, looked up)
# Tissue alpha-L-fucosidase: LVRAAAPPRRYTPDWQSLDSRPLPDWFDKAKFGVFVHWGEFAVPAWGSEWFWWHWKGEGLPQYEQFMSENYPPGFSYADFGPQFTARFFHPDTWADLFQAAGARYVVLTTKHHEGFTNWPSSVSWNWNSNDVGPHRDLVGELGRALRKRNIRYGLYHSLLEWFHPLYLLDKKNNFKTQFFVRAKTMPELYDLVNRYEPDLIWSDGEWKCPDTYWNSTEFLSWLYNDSPVKDHVVVNDRWGQNCSCHHGGYYNCQDKYKPESLPDLKWEMCTSIDKVSWGYRRNMVMSDVASECEIISELVQTVSLGGNYLLNIGPTKDGLIVPIFQERLLSIGKWLSINGEAIYASKPWRVQLEKNTTSVWYTSRGMTVYAIFLRWPENGVLSLKSPVTTSTTQITMLGIQKDLKWSTEPEGLLIYLPQLSLFTLPVEFGWTIKLTGVE
# B3: AlfA: α-L-fucosidase from Dictyostelium discoideum (Uniprot P10901) (protein, UniProt P10901 19-461, looked up)
# Alpha-L-fucosidase: QQYGPTWDQINSRPLPGWYDDVKFGIFIHFGIYSVPAFANGGYAEWYWWTLKNPSSDGGATQRYHEKEFGANFTYQDFVSRFDCRLFDANEWASIIEKSGAKYVVLTSKHHEGYTLWNSEQSWNWNSVETGPGIDIVGELTKSVKNMGLHMGLYHSLFEWFNPLYLADAETGKNPTTQVYVDEILMKQLKDIVTTYEPELIWADGDWMQLSNYWKSTEFLSWLYTNSSVKDTVIVNDRWGSECRDKNGGFYTGADHFNPYKLQSHKWENCATIGYSYGYDEYEQATDYQNATELIIDLVTTVACGGNFLLDVGPDAQGTIPNNMVDRLLEIGNWLSINSESIYGSSPWRVQNMTFNIWYTTNTTNGNVYAFVFELPDDGVLILSDPIGNNKTEATLLGLKGEKGVEVSLPIESTKPGITLNIPMVAPQDYPPYVYVFRLTDVE
# B4: FucA2;Mgc1314;dJ20N2.5: α-L-fucosidase FucA2 from Homo sapiens (Uniprot Q7Z6V2) (protein, UniProt Q9BTY2 29-467, looked up)
# Plasma alpha-L-fucosidase: HSATRFDPTWESLDARQLPAWFDQAKFGIFIHWGVFSVPSFGSEWFWWYWQKEKIPKYVEFMKDNYPPSFKYEDFGPLFTAKFFNANQWADIFQASGAKYIVLTSKHHEGFTLWGSEYSWNWNAIDEGPKRDIVKELEVAIRNRTDLRFGLYYSLFEWFHPLFLEDESSSFHKRQFPVSKTLPELYELVNNYQPEVLWSDGDGGAPDQYWNSTGFLAWLYNESPVRGTVVTNDRWGAGSICKHGGFYTCSDRYNPGHLLPHKWENCMTIDKLSWGYRREAGISDYLTIEELVKQLVETVSCGGNLLMNIGPTLDGTISVVFEERLRQMGSWLKVNGEAIYETHTWRSQNDTVTPDVWYTSKPKEKLVYAIFLKWPTSGQLFLGHPKAILGATEVKLLGHGQPLNWISLEQNGIMVELPQLTIHQMPCKWGWALALTNVI
# B5: FucA1;FucA: α-L-fucosidase FucA1 from Rattus norvegicus (Uniprot P17164) (protein, UniProt P17164 29-462, looked up)
# Tissue alpha-L-fucosidase: APHHYTPDWPSLDSRPLPRWFDEAKFGLFVHWGVYSVPAWGSEWFWWHWQGEQSSAYVRFMKENYPPGFSYADFAPQFTARFFHPEEWADLFQAAGAKYVVLTAKHHEGFTNWPSAVSWNWNSKDVGPHRDLVGELGAAVRKRNIRYGLYHSLFEWFHPLYLLDKKNGLKTQHFVSTKTMPELYDLVNRYKPDLIWSDGEWECPDSYWNSTEFLAWLYNESPVKDQVVVNDRWGQNCSCRHGGYYNCEDKYRPHSLPDHKWEMCTSVDKASWGYRRDMSMSTIVDENEIIEELVQTISLGGNYLLNIGPNKDGVIVPIFQERLLAVGKWLQINGEAIYASKPWRVQSERNKTVVWYTTKDSAVYATFLHWPEDGVVNLQSPKMTSATKITMLGMEGELHWTQDPLEGVLITLPQLPPGTFPVESAWTLKLTKVN
# Parameters: method as in earlier work
# Conditions: S2 Table, wrapped lists given only as far as the first printed line, ref http://www.cazy.org/GH29_characterized.html and S2 Table refs 1-18
molecule,measurement,setting,value
B1,Reported substrates hydrolyzed,,"2-aminobenzamide labeled LNFP II, 3FL, fucose linked α1-4"
same,Reported substrates not hydrolyzed,,"2-aminobenzamide labeled 2’-FL, pNP-Fuc"
B2,Reported substrates hydrolyzed,,4- methylumbelliferyl- α- L-fucopyrano side
same,Reported substrates not hydrolyzed,,4- methylumbellife ryl β-fucopyranos i de
same,Reported substrates hydrolyzed,listed as FucA1,"4- methylumbellife ryl α- L-fucopyranoside, pNP-F uc, 2’ -FL"
B3,Reported substrates hydrolyzed,,6- O-alpha-L-fucopyranosyl- N-acetylglucosaminitol
same,Reported substrates not hydrolyzed,,Lacto-N-fucopentaitol II
B4,Reported substrates hydrolyzed,,"Hydrolyzes pNP-Fuc, prefers α1-2 but capable of cleaving"
B5,Reported substrates hydrolyzed,,"Hydrolyzes pNP-Fuc, α1-2, α1-3, and α1-4 fucosyl linkages"
same,Reported substrates not hydrolyzed,,Fucα1- 2GlcNAcβ-p NP
